Laboratory results published in patent publication US20240287172A1 (SCIRHOM, published 2024).
Substitutions are numbered along the chain they refer to.

T1: miR2-FL-WT-T7 (mouse, UniProt Q80WQ6 1-827)
T1 construct: on MEF-DKO cells
T1 sequence: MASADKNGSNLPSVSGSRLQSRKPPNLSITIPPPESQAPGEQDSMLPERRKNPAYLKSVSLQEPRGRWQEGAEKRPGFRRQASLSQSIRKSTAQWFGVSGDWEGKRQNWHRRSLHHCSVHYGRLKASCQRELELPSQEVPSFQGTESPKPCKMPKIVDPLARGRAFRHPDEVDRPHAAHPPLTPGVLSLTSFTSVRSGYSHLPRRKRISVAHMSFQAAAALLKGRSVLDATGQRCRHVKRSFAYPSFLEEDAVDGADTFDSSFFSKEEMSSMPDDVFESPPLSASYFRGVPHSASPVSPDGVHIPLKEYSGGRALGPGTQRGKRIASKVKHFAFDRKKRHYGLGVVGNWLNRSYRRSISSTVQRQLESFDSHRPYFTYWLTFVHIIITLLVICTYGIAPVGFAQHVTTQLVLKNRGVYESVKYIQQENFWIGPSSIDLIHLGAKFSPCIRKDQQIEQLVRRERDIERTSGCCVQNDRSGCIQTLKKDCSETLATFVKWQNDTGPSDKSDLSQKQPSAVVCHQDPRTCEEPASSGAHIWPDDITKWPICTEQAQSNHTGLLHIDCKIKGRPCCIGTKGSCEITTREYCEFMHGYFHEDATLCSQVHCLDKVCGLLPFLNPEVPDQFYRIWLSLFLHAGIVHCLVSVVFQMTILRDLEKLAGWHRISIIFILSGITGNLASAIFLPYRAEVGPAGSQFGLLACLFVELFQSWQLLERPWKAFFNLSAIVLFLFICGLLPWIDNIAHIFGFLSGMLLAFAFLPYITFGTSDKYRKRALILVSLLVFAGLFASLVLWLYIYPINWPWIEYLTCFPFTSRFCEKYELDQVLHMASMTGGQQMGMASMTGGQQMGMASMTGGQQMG

T2: hiR2-FL-P533-T7 (deletion of P533) (human, UniProt Q6PJF5 1-856)
T2 construct: single residue deletion, not a substitution; on MEF-DKO cells
T2 sequence: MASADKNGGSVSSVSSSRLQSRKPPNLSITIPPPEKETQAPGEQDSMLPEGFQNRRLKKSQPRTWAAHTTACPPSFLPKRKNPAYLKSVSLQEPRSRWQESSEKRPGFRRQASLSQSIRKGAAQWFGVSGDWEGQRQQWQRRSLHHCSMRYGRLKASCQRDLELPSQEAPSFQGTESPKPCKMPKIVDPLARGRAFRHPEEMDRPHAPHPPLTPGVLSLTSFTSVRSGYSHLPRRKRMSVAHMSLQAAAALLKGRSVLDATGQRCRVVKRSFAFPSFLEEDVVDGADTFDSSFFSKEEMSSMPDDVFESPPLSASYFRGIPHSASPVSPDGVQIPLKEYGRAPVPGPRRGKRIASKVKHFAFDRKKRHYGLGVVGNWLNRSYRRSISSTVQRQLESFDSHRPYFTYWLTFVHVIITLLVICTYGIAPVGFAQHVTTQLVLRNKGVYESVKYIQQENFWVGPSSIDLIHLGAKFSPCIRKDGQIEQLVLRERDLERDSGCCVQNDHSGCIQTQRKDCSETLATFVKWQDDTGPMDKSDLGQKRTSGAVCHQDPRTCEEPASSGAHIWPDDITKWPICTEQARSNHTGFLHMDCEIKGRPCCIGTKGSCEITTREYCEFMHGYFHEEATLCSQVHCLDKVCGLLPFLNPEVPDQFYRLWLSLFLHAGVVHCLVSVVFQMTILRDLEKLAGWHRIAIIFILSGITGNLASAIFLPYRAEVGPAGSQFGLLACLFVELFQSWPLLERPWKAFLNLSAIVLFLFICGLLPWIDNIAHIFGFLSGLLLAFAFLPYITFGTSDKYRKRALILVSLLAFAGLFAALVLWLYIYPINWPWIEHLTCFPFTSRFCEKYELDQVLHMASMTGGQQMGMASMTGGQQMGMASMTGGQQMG

T3: hiR1-FL-WT-T7 (human, UniProt Q96CC6 1-855)
T3 construct: on MEF-DKO cells
T3 sequence: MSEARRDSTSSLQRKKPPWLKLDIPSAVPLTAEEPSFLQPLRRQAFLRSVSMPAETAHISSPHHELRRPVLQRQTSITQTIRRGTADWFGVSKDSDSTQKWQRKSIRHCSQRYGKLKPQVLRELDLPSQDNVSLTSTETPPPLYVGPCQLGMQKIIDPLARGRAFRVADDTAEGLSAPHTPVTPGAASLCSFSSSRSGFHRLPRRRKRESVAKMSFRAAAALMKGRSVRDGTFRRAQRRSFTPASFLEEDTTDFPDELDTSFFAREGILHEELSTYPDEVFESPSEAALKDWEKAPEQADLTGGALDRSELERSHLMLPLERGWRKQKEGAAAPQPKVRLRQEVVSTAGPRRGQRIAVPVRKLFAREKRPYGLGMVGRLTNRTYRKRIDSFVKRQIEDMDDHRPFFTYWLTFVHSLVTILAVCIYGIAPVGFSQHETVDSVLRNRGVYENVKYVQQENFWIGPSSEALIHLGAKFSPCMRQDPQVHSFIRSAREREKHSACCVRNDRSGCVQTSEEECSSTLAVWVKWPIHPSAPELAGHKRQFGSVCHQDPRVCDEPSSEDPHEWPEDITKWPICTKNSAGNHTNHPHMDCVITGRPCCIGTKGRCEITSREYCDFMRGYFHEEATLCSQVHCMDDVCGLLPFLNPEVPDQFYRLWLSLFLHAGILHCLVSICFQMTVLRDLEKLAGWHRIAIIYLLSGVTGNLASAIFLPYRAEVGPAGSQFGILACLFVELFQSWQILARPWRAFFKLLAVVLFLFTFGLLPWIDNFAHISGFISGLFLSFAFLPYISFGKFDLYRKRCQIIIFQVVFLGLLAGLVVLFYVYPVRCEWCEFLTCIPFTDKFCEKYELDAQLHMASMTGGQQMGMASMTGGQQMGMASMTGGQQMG

B1: antibody 34 (antibody, V domains shown)
VH: QVTLKESGPGILQPSQTLSLTCSFSGFSLSTFSLGVGWIRQSSGKGLEWLAHIWWDDEKYYNPALKSRLTISKDTSKNQVFLKIANVDAADTATYYCARAYYSKSYYALDYWGQGTSVTVSS
VL: DIQMTQSPSSLSASLGERVSLTCRASQEISGYLSWLQQKPDGTIKRLIYAASTLDSGVPKRFSGSRSGSDYSLAISSLESEDFADYYCLQYANFPFTFGSGTKLEIK
notes: mouse IgG, kappa light chain; also called clone #34; purified antibody 34
B2: antibody 48 (antibody, V domains shown)
VH: QVQLQQSGTELVRPGTSVKVSCKASGYAFTNYLIEWVKQRPGQGLEWIGVINPGSGFTKYNEKFKGKATLTADKSSSTVYMHLSSLTSEDSAVYFCARGLYRAMDYWGQGTSVTVSS
VL: DIQMTQSPASQSASLGESVTITCLASQTIATWLAWYQQKPGKSPQLLIYGATTLADGVPSRFSGGGSGTKFSFKISSLQAEDFVSYYCQQLYSTPYTFGGGTKLEIK
notes: mouse IgG, kappa light chain; also called clone #48; purified antibody 48
B3: antibody 50 (antibody, V domains shown)
VH: B2 VH with T9A, T16A, T30S, V79A, H82Q
VL: B2 VL with A30G, G50A, T52A, T53S, S85N, L91I
notes: mouse IgG, kappa light chain; also called clone #50; purified antibody 50
B4: antibody 5 (antibody, V domains shown)
VH: QVTLKESGPGILQPSQTLSLTCSFSGFSLSTFGMGVGWIRQPSGKGLEWLAHIWWDDEKYYNSALKSRLTISKATSKNQAFLKIANVDTADTATYYCARISNYGSNYWYFNVWGTGTTVTVSS
VL: QVVLTQSPALMSASPGEKVTMTCSAGSSVSCMYWYQQKPGSSPRVLIYDTSNLASGVPARFTGSGSGTSYSLTISRMEAEDAASYYCQQWNSYPLTFGAGTKLELK
notes: mouse IgG, kappa light chain; also called clone #5; purified antibody 5
B5: antibody 43 (antibody, V domains shown)
VH: B4 VH with T3A, P42S, H52N, E58D, S63P, A74D, T75A, S101G, N111D
VL: QIVLTQSPAIMSASPGERVTMTCSANSRISYMYWYQQKPGSSPRLLIYDTSNLASGVPVRFSGSGSGTSYSLTISRMEAEDAATYNCQQWSSYPLTFGAGTKLELK
notes: mouse IgG, kappa light chain; also called clone #43; purified antibody 43
B6: antibody 42 (antibody, V domains shown)
VH: B4 VH with F24L, M34R, S63P, A74D, A80V, K83R, S101Q, N111D
VL: B5 VL with Q1L, R18K, S24G, N26T, Y33F, L45V, M77V, A82V, N86Y, S91N
notes: mouse IgG, kappa light chain; also called clone #42; purified antibody 42
B7: antibody 44 (antibody, V domains shown)
VH: B4 VH with G44E, E58D, S63P, A74D, A80I, A85T, D91E, A98S, S101G, N111D
VL: QIVLTQSPAVMSASPGEKVTMTCTASSSVYYMYWYQQTPGSSPRLLIYDTSNLASGVPVRFSGSGSGTSYSLTISRMEAEDAATYYCQQWNTYPLTFGAGTKLELK
notes: mouse IgG, kappa light chain; also called clone #44; purified antibody 44
B8: antibody 22 (antibody, V domains shown)
VH: B4 VH with A80V
VL: B4 VL with C31Y, S84T
notes: mouse IgG, kappa light chain; also called clone #22; purified antibody 22
B9: antibody 16 (antibody, V domains shown)
VH: QVTLKESGPGILQPSQTLSLTCSFSGFSLSTFALGVGWIRQPSGRGLEWLAHIWWDDDKYYNPALKSRLTISKDTSKNHVFLKIANVDTADTATYYCARITTYYYGMDYWGQGTSVTVSS
VL: DIVLSQSPATLSVTPGDSVSLFCRASQSIGNHLHWYQQESHASPRLLIKYASQSISGIPSRFSGSGSGTDFTLSINSVETEDFGMYFCQQSYNWPLTFGAGTKLELK
notes: mouse IgG, kappa light chain; also called clone #16; purified antibody 16
B10: antibody 3 (antibody, V domains shown)
VH: QVTLKESGPGILQPSQTLSLTCSFSGFSLTTFAMGIGWVRQPSGKGLEWLAHIWWDGEKYNNPVLKSRLTISKDTSKNQVFLRIANVDTPDTATYYCARISSIYYIIDNWGQGTSVTVSS
VL: B9 VL with S5T, D17H, F22S, G30S, H32N, Q38K, E39K, A42E, A51V
notes: mouse IgG, kappa light chain; also called clone #3; purified antibody 3

Legend:
miR2-FL-WT-T7 = biological target: T1, miR2-FL-WT-T7; assay: FACS on MEF-DKO cells
[1] = biological target: T2, hiR2-FL-P533-T7 (deletion of P533); assay: FACS on MEF-DKO cells
mouse iR1 wild type = biological target: T4, mouse iR1 wild type (mouse); assay: FACS, MEF-DKO cells, 3 µg/ml
T4 construct: wild type, expressed on cells; also called mouse iRhom1 wild type

hiR1-FL-WT-T7 = biological target: T3, hiR1-FL-WT-T7; assay: FACS, MEF-DKO cells, 3 µg/ml

Row | Binder | binding result (miR2-FL-WT-T7) | binding result [1] | loss of binding vs wild type (mouse iR1 wild type) | loss of binding vs wild type (hiR1-FL-WT-T7)
1 | B1 | no binding (tested: 3 µg/ml) | no binding (tested: 3 µg/ml) | ≥ 95% | ≥ 95%
2 | B2 | – | – | ≥ 60% | ≥ 60%
3 | B3 | – | – | ≥ 95% | ≥ 95%
4 | B4 | no binding (tested: 3 µg/ml) | no binding (tested: 3 µg/ml) | ≥ 95% | ≥ 95%
5 | B5 | no binding (tested: 3 µg/ml) | no binding (tested: 3 µg/ml) | ≥ 95% | ≥ 95%
6 | B6 | no binding (tested: 3 µg/ml) | no binding (tested: 3 µg/ml) | ≥ 95% | ≥ 95%
7 | B7 | no binding (tested: 3 µg/ml) | no binding (tested: 3 µg/ml) | ≥ 95% | ≥ 95%
8 | B8 | no binding (tested: 3 µg/ml) | no binding (tested: 3 µg/ml) | ≥ 95% | ≥ 95%
9 | B9 | no binding (tested: 3 µg/ml) | no binding (tested: 3 µg/ml) | ≥ 95% | ≥ 95%
10 | B10 | – | no binding (tested: 3 µg/ml) | ≥ 95% | ≥ 95%
